# Assay results: patent US11795460B2, “Compositions and methods for TTR gene editing and treating ATTR amyloidosis” (Intellia Therapeutics, Inc., priority 2017, dated 2023)
# Strand notation (5' to 3'): a small letter for the sugar, then the base; units joined by * are phosphorothioate-linked, units joined directly phosphodiester-linked; [ ] holds rarer units or linkages, { } end groups; capitals alone tell only the bases. m = 2'-O-methyl; r = 2'-OH (RNA)
# B1: G000568: TTR sgRNA modified sequence, Human, SEQ ID No. 110; guide sequence of CR003391 (nucleic acid)
# guide: mG*mG*mC*rUrGrUrCrGrUrCrArCrCrArArUrCrCrCrArGrUrUrUrUrArGrAmGmCmUmAmGmAmAmAmUmAmGmCrArArGrUrUrArArArArUrArArGrGrCrUrArGrUrCrCrGrUrUrArUrCrAmAmCmUmUmGmAmAmAmAmAmGmUmGmGmCmAmCmCmGmAmGmUmCmGmGmUmGmCmU*mU*mU*mU
# B2: G000483: TTR sgRNA modified sequence, Human, SEQ ID No. 90; guide sequence of CR005298 (nucleic acid)
# guide: mU*mC*mC*rArCrUrCrArUrUrCrUrUrGrGrCrArGrGrArGrUrUrUrUrArGrAmGmCmUmAmGmAmAmAmUmAmGmCrArArGrUrUrArArArArUrArArGrGrCrUrArGrUrCrCrGrUrUrArUrCrAmAmCmUmUmGmAmAmAmAmAmGmUmGmGmCmAmCmCmGmAmGmUmCmGmGmUmGmCmU*mU*mU*mU
# B3: G000490: TTR sgRNA modified sequence, Human, SEQ ID No. 97; guide sequence of CR003366 (nucleic acid)
# guide: mA*mA*mA*rUrArGrArCrArCrCrArArArUrCrUrUrArCrGrUrUrUrUrArGrAmGmCmUmAmGmAmAmAmUmAmGmCrArArGrUrUrArArArArUrArArGrGrCrUrArGrUrCrCrGrUrUrArUrCrAmAmCmUmUmGmAmAmAmAmAmGmUmGmGmCmAmCmCmGmAmGmUmCmGmGmUmGmCmU*mU*mU*mU
# B4: G000493: TTR sgRNA modified sequence, Human, SEQ ID No. 100; guide sequence of CR003368 (nucleic acid)
# guide: mA*mA*mG*rUrGrCrCrUrUrCrCrArGrUrArArGrArUrUrGrUrUrUrUrArGrAmGmCmUmAmGmAmAmAmUmAmGmCrArArGrUrUrArArArArUrArArGrGrCrUrArGrUrCrCrGrUrUrArUrCrAmAmCmUmUmGmAmAmAmAmAmGmUmGmGmCmAmCmCmGmAmGmUmCmGmGmUmGmCmU*mU*mU*mU
# B5: G000481: TTR sgRNA modified sequence, Human, SEQ ID No. 88; guide sequence of CR003345 (nucleic acid)
# guide: mU*mC*mU*rArGrArArCrUrUrUrGrArCrCrArUrCrArGrGrUrUrUrUrArGrAmGmCmUmAmGmAmAmAmUmAmGmCrArArGrUrUrArArArArUrArArGrGrCrUrArGrUrCrCrGrUrUrArUrCrAmAmCmUmUmGmAmAmAmAmAmGmUmGmGmCmAmCmCmGmAmGmUmCmGmGmUmGmCmU*mU*mU*mU
# B6: G000567: TTR sgRNA modified sequence, Human, SEQ ID No. 109; guide sequence of CR003352 (nucleic acid)
# guide: mG*mA*mA*rArGrGrCrUrGrCrUrGrArUrGrArCrArCrCrGrUrUrUrUrArGrAmGmCmUmAmGmAmAmAmUmAmGmCrArArGrUrUrArArArArUrArArGrGrCrUrArGrUrCrCrGrUrUrArUrCrAmAmCmUmUmGmAmAmAmAmAmGmUmGmGmCmAmCmCmGmAmGmUmCmGmGmUmGmCmU*mU*mU*mU
# B7: G000484: TTR sgRNA modified sequence, Human, SEQ ID No. 91; guide sequence of CR003367 (nucleic acid)
# guide: mA*mG*mA*rCrArCrCrArArArUrCrUrUrArCrUrGrGrArGrUrUrUrUrArGrAmGmCmUmAmGmAmAmAmUmAmGmCrArArGrUrUrArArArArUrArArGrGrCrUrArGrUrCrCrGrUrUrArUrCrAmAmCmUmUmGmAmAmAmAmAmGmUmGmGmCmAmCmCmGmAmGmUmCmGmGmUmGmCmU*mU*mU*mU
# B8: G000500: TTR sgRNA modified sequence, Human, SEQ ID No. 107; guide sequence of CR003337 (nucleic acid)
# guide: mC*mC*mA*rGrUrCrCrArGrCrArArGrGrCrArGrArGrGrGrUrUrUrUrArGrAmGmCmUmAmGmAmAmAmUmAmGmCrArArGrUrUrArArArArUrArArGrGrCrUrArGrUrCrCrGrUrUrArUrCrAmAmCmUmUmGmAmAmAmAmAmGmUmGmGmCmAmCmCmGmAmGmUmCmGmGmUmGmCmU*mU*mU*mU
# B9: G000482: TTR sgRNA modified sequence, Human, SEQ ID No. 89; guide sequence of CR003365 (nucleic acid)
# guide: mU*mG*mU*rArGrArArGrGrGrArUrArUrArCrArArArGrGrUrUrUrUrArGrAmGmCmUmAmGmAmAmAmUmAmGmCrArArGrUrUrArArArArUrArArGrGrCrUrArGrUrCrCrGrUrUrArUrCrAmAmCmUmUmGmAmAmAmAmAmGmUmGmGmCmAmCmCmGmAmGmUmCmGmGmUmGmCmU*mU*mU*mU
# Tested on: TTR
# Assay: TTR editing in primary human hepatocytes treated with LNP formulated Spy Cas9 mRNA (SEQ ID NO: 2) and sgRNAs (Table 16)
# Assay type: cell-based
# Details: LNP formulated Spy Cas9 mRNA (SEQ ID NO: 2) and sgRNA, 72 hours
# Description: Primary liver hepatocytes. Primary human liver hepatocytes (PHH) and primary cynomolgus liver hepatocytes (PCH) (Gibco) were cultured per the manufacturer's protocol (Invitrogen, protocol 11.28.2012). In brief, the cells were thawed and resuspended in hepatocyte thawing medium with supplements (Gibco, Cat. CM7000) followed by centrifugation at 100 g for 10 minutes for human and 80 g for 4 minutes for cyno. The supernatant was discarded and the pelleted cells resuspended in hepatocyte plating medium plus supplement pack (Invitrogen, Cat. A1217601 and CM3000). Cells were counted and plated on Bio-coat collagen I coated 96-well plates (ThermoFisher, Cat. 877272) at a density of 33,000 cells/well for human or 60,000 cells/well for cyno (or 65,000 cells/well when assaying effects on TTR protein, described further below). Plated cells were allowed to settle and adhere for 6 or 24 hours in a tissue culture incubator at 37° C. and 5% CO2 atmosphere. After incubation cells were checked for monolayer formation and media was replaced with hepatocyte culture medium with serum-free supplement pack (Invitrogen, Cat. A1217601 and CM4000).
# In general, the lipid nanoparticle components were dissolved in 100% ethanol with the lipid component of various molar ratios. The RNA cargos were dissolved in 25 mM citrate, 100 mM NaCl, pH 5.0, resulting in a concentration of RNA cargo of approximately 0.45 mg/mL. The LNPs were formulated with a lipid amine to RNA phosphate (N:P) molar ratio of about 4.5 or about 6, with the ratio of mRNA to gRNA at 1:1 by weight.
# The LNPs were formed by microfluidic mixing of the lipid and RNA solutions using a Precision Nanosystems NanoAssemblr™ Benchtop Instrument, according to the manufacturer's protocol. A 2:1 ratio of aqueous to organic solvent was maintained during mixing using differential flow rates. After mixing, the LNPs were collected, diluted in water (approximately 1:1 v/v), held for 1 hour at room temperature, and further diluted with water (approximately 1:1 v/v) before final buffer exchange. The final buffer exchange into 50 mM Tris, 45 mM NaCl, 5% (w/v) sucrose, pH 7.5 (TSS) was completed with PD-10 desalting columns (GE). If required, formulations were concentrated by centrifugation with Amicon 100 kDa centrifugal filters (Millipore). The resulting mixture was then filtered using a 0.2 μm sterile filter. The final LNP was stored at −80° C. until further use.
# To quantitatively determine the efficiency of editing at the target location in the genome, sequencing was utilized to identify the presence of insertions and deletions introduced by gene editing.
# Primers were designed around the target site within the gene of interest (e.g. TTR), and the genomic area of interest was amplified.
# Additional PCR was performed per the manufacturer's protocols (Illumina) to add chemistry for sequencing. The amplicons were sequenced on an Illumina MiSeq instrument. The reads were aligned to a reference genome (e.g., the human reference genome (hg38), the cynomologus reference genome (mf5), the rat reference genome (rn6), or the mouse reference genome (mm10)) after eliminating those having low quality scores. The resulting files containing the reads were mapped to the reference genome (BAM files), where reads that overlapped the target region of interest were selected and the number of wild type reads versus the number of reads which contain an insertion, substitution, or deletion was calculated.
# The editing percentage (e.g., the “editing efficiency” or “percent editing” or “indel frequency”) is defined as the total number of sequence reads with insertions/deletions (“indels”) or substitutions over the total number of sequence reads, including wild type.
# Lipid nanoparticle formulations of modified sgRNAs targeting human TTR and the cyno matched sgRNA sequences were tested on primary human hepatocytes and primary cyno hepatocytes in a dose response curve. Primary human and cyno hepatocytes were plated as described in Example 1. […]
row,Molecule,"12.5 ng mRNA, 3.9 nM sgRNA Avg % Edit [%]"
1,B1,54.60
2,B2,7.37
3,B3,10.53
4,B4,7.33
5,B5,24.37
6,B6,48.95
7,B7,16.67
8,B8,23.57
9,B9,19.10

# Tested on: TTR
# Assay: TTR editing in primary cyno hepatocytes treated with LNP formulated Spy Cas9 mRNA (SEQ ID NO: 2) and sgRNAs (Tables 17, 18)
# Assay type: cell-based, cynomolgus monkey
# Details: Table 17, LNP formulated Spy Cas9 mRNA (SEQ ID NO: 2) and sgRNA, 12.5 ng mRNA, 3.9 nM sgRNA, 72 hours
# Summary of the method: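 Primary cynomolgus hepatocytes, 24 h after plating, dosed with LNPs (N:P about 4.5 or 6, mRNA:gRNA 1:1 by weight) pre-incubated 5 min at 37° C. in medium with 6% cyno serum, in an 8-point 2-fold dose response. Editing = indel/substitution reads over total reads by amplicon MiSeq sequencing.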
row,Molecule,"12.5 ng mRNA, 3.9 nM sgRNA Avg % Edit [%]"
1,B1,9.25
2,B2,0.73
3,B3,15.23
4,B4,7.63
5,B5,49.20
6,B6,0.10
7,B7,0.10
8,B8,10.47
9,B9,26.13

# Tested on: TTR mRNA
# Assay: TTR mRNA knockdown in primary human hepatocytes by quantitative PCR (Tables 34, 35)
# Assay type: cell-based
# Details: TTR mRNA in PHH; LNP dose 300 ng mRNA cargo; gRNA:mRNA 1:2; 96 hours after treatment; biological triplicates; vs untreated control
# Description: In one experiment, PHH were cultured and treated with LNPs comprising Cas9 mRNA (SEQ ID NO:1) and a gRNA of interest (See FIG. 29, Table 34), as described in Example 4. The LNPs were prepared using the cross-flow procedure described above and purified and concentrated using PD-10 columns and Amicon centrifugal filter units, respectively. The LNPs were formulated with an N:P ratio of 6.0 and contained Lipid A, Cholesterol, DSPC, and PEG2k-DMG in a 50:38:9:2 molar ratio, respectively. The LNPs comprised a gRNA:mRNA ratio of 1:2, and the cells were treated at a dose of 300 ng (with respect to the amount of mRNA cargo delivered).
# (§1) Ninety-six (96) hours following LNP treatment (with biological triplicates for each condition), mRNA was purified from PHH cells using the Dynabeads mRNA DIRECT Kit (ThermoFisher Scientific) according to the manufacturer's protocol. Reverse Transcription (RT) was performed with Maxima reverse transcriptase (ThermoFisher Scientific) and a poly-dT primer. The resulting cDNA was purified with Ampure XP Beads (Agencourt). For Quantitative PCR, 2% of the purified cDNA was amplified with Taqman Fast Advanced Mastermix and 3 Taqman probe sets, TTR (Assay ID: Hs00174914_m1), GAPDH (Assay ID: Hs02786624_g1), and PPIB (Assay ID: Hs00168719_m1). The assays were run on the QuantStudio 7 Flex Real Time PCR System according to the manufacturer's instructions (Life Technologies). Relative expression of TTR mRNA was calculated by normalizing to the endogenous controls (GAPDH and PPIB) individually, and then averaged.
# In a separate experiment, TTR mRNA knockdown was evaluated following treatment with LNPs comprising G000480, G000486, and G000502. The LNPs were formulated and PHH were cultured and treated with the LNPs, each as described in the experiment above in this Example with the exception that the cells were treated at a dose of 100 ng (with respect to the amount of mRNA cargo delivered).
# as §1, with “(single treatment” for “(with biological triplicates”, “the High Capacity cDNA Reverse Transcription Kit” for “Maxima reverse transcriptase”, “according to the manufacturer's instructions.” for “and a poly-dT primer. The resulting cDNA was purified with Ampure XP Beads (Agencourt).”, “the” for “the purified”
row,Molecule,Avg % Knockdown [%]
1,B1,53.44
2,B2,68.78
3,B3,78.34
4,B4,87.53
5,B5,91.39
6,B6,90.89
7,B7,75.22
8,B8,92.90
9,B9,82.31
